Measured values as given in publication PMC4190115.

Target: His-tagged N-terminal domain (1-165 aa) of matrix protein 1 (M1) of influenza A virus A/WSN/33 (H1N1) (Influenza A virus A/WSN/33 (H1N1)) (UniProt P05777)
Test: crystal structure

Q: With “His-tagged N-terminal domain (1-165 aa) of matrix protein 1 (M1) of influenza A virus A/WSN/33 (H1N1) (from UniProt P05777 1-165) (domain or fragment)” as the substance, how does the stoichiometry N read?
A: 2
